Test results taken from publication PMC4618611, “IscR of Rhodobacter sphaeroides functions as repressor of genes for iron-sulfur metabolism and represents a new type of iron-sulfur-binding protein” (MicrobiologyOpen, 2015).
“And” between values parts separate entries of the source, which are not always exact repeats. Equal entries are not always repeated.

Target: the molecule itself
Test: SEC; gel filtration of the purified protein on a Superdex 200 16/60 column; aerobic conditions; data not shown

B1: IscR of Rhodobacter sphaeroides (His-tagged recombinant IscR) (natural protein, UniProt Q3J0R9 1-155, looked up)
chain: MKLSTKGRYAMVALVDLALAQKSGNELVSLAEVSKRQDISLPYLEQLFVKLRRAGLVEAVRGPGGGYKLARPAESIRVSEIMEAVEETVNAMHTGAGASGGVSGSRAQSLTNRLWEGLSAHVYVFLHQTRLSDIIKNEMRPCPAVPALFRVVDED
notes: IscR, Rhodobacter sphaeroides 2.4.1, locus RSP_0443 (KEGG), 155 amino acid residues; the coding region of iscR was amplified and cloned into pQE30; also called His-tagged IscR; RSP_0443; source: E. coli M15 (pQE30::iscR), overexpressed, purified (Ni-NTA)
  stoichiometry N: 2 and 4
